The source of these data is a protein production outcome set (Wang et al. 2014).

The nature of the data set: label from the status in PepcDB records.
With “SLERSVNGKIQKADIFSVPVSFNASEVKHVDTPQEALAASLNKFGEVNLEYMENLSEIDIQELLKQLDTRIFYNPMMKNYEIKDRFIAGNVVAKAEWIENYLKDYPDDDASRKSLEALRKAIPEPISFELLDFNLGERWIPMSVYEEFAGYLFETKAHIHYTESIDEFSVNFESTNANITDRYYVKGEKRGYYGNDLLKHALHNTVPDITKTVQDEEGNDIKVRDAEAIQLADAKINEIRSAFTGWLNEQLPEFKQNLADMYNRKFNCYVRPDYDGSLQSFPFLDLKGLGIPNLYDSQ”, the protein production result is listed as “failed”.
As for “MNINVAELLNGNYILLLFVVLALGLCLGKLRLGSIQLGNSIGVLVVSLLLGQQHFSINTDALNLGFMLFIFCVGVEAGPNFFSIFFRDGKNYLMLALVMVGSALVIALGLGKLFGWDIGLTAGMLAGSMTSTPVLVGAGDTLRHSGMESRQLSLALDNLSLGYALTYLIGLVSLIVGARYLPKLQHQDLQTSAQQIARERGLDTDANRKVYLPVIRAYRVGPELVAWTDGKNLRELGIYRQTGCYIERIRRNGILANPDGDAVLQMGDEIALVGYPDAHARLDPSFRNGKEVFDRDLLDMRIVTEEVVVKNHNAVGKRLAQLKLTDHGCFLNRVIRSQIEMPIDDNVVLNKGDVLQVSGDARRVKTIADRIGFISIHSQVTDLLAFCAFFVIGLMIGMITFQFSTFSFGMGNAAGLLFAGIMLGFMRANHPTFGYIPQGALSMVKEFGLMVFMAGVGLSAGSGINNGLGAIGGQMLIAGLIVSLVPVVICFLFGAYVLRMNRALLFGAMMGARTCAPAMEIISDTARSNIPALGYAGTYAIANVLLTLAGTIIVMVWPGLG”, the protein production result is “failed”.
Turning to “MKPPADNNKEGAESHKLESESKPIWKSMSMFLVPLLLSNVLQSVGQLFGMVVVGRWLGVNDLAAISAFFPLFFLLVSFVIGIGSGSSILIGQAFGAKNEDRLKAIVGTTLTFTFIIGVLLAIIGSIFAMDIMRLMGTPENIIEISVHYARILFISMPVLFLYFAYTTFMRGTGDSKTPFYFLIVSTALNMILLPILIFGWLGAPKLDVYGAAYASVISTVITFIVMLVYLKKKNHPLQLDGTVRKYLRMDGELLKLLLRLGIPASINMILVSLSEIAVIAFVNRYGSDATAAYGVVNQVASYVQMPAVSLGITVSIFAAQSIGANQFDRLQKVVKAGIIMNYVIGGVLISLIYVFSRDILSLFLTSQTTIEIAHSLVMITLWSYLIFGHAQIISATMRASGTVLWPTVIGVVSIWLVEVPVAYYLSYHTSLGIEGIWIGYPAAFIVSLILQYAYYKLSWQKKRITRLVS”, the protein production result is recorded as “not failed”.
Then “MFIKAERLLIRKFEFKDWEAVHEYTSDSDVMKYIPEGVFTEEDTRNFVNKNMGENAKNFPVILIGENILVGHIVFHKYFGEHTYEIGWVFNPKYFNKGYASEAAQATLKYGFKEMKLHRIIATCQPENTPSYRVMEKIGMRREGYFKKCIPHGNEWWDEYYYAILEEE”, with “not failed”; and “MNIAANPHVQADQTVYLKDYQKPSFLVESINLDIQVYDDHTVVESTLVMNRQTAGDLVLLGRDLELKSIVLNGKNLEVGQYQLDHEQLVITHAPDQVILNTQVVIHPESNTQLEGLYKAGGDLFVTQNEPEGFRKITFYPDRPDVLAEFTTRVEADKKFPVLLANGNLLETGTVGENRHFAIWQDPTKKPSYLFACVIGDLAVLKDHYTTSEGREVALEIYAIEKDIPKCHIAMEALKHSMRWDEEHYGRPYDLDNYMIVAVSQFNMGAMENKGLNIFNTSCVLADEEYTTDAAIMRVQSVIAHEYFHNWTGNRITCRDWFQLCLKEGLTVFRDQSFSEDLQSAAVQRIDDVAVLKAHQFPEDAGPLSHPPRPDHFVEINNFYTATVYEKGAEINRMMSTLLGKEKFRQGTDEYFHRYDGQAVTVEDWVNALSAGSGVDLSNFLTWYNQPGTPKLEAKGEYDEQNHVYRLSFKQSLKVHPKYPNLKAVPVPVALALFNAETGEQYTLHCQDLFVNEVQDGVYLFDQDTATIEFSNVTQKPVVSLLRNFSAPVNLDFDYSDDELAFLIEYETNGFNQWQASQTLLERILLKDHAVEPYIKAIKNTLPDLVKKDPLLASRLFDVPTEGYLGSRIDHDYKPEAIQEKRNSVLETLARELGAFWKETYLSLDPSLQNDFSQAMGERALKNIMLSMMARQGDDSVFDLAYTQYSQTKNMSERLGALRVLVWNDAPQAQNALDDFYRRYKDEALSLDQWFMVQAANPNATAETIKALTEHPDYDLGTPNRVRSVSGGLSNNPVNAWSFGVEHYIGLAEYFDEKNPILGSRLLQVLSRWYTLAEPQRGNVQNALKDLQPHVKSKNVKETLNSILSV”, with “failed”.
On to “MTLTALNAISPIDGRYVNKTRALSPYFSEFALTYYRLMVEIKWFESLAANDTIPEVPALDNKARKFLSDLISNFNESEAEKIKEFEKQTNHDVKAVEYYLQDKFQENEQLKSCVAFIHFACTSEDINNLAYALMIKQAIAQVIQPTIAEIMGSITLLGKQHADVAMLSRTHGQPATPTTMGKELVNFVARLKRPQQQLAEVLIPAKFNGAVGNYNAHVAAYPEVDWRKHCANFVTSLGLSFNAYTTQIEPHDGIAEVSQIMVRINNILLDYTQDIWSYISLGYFKQKTIAEEVGSSTMPHKVNPIDFENAEGNLGLSNALFIHFANKLTQSRMQRDLSDSTVLRNLGVAFSYSLIAYHSVAKGNDKLQINKSALQKDLSENWEVLAEAIQTVMRRYNEPNAYEQLKELTRGQMIDAENLKKFIKTLSIPEEAKAELMKLTPETYTGLATQLVKAFS”, for which the protein production result was “not failed”.
As to “MPTYEELSQAVFEGDEAQVVELTRSLLSGGAEPLEVINKGLIAGMDRVGVLFKNNEMFVPEVLMSANAMNAGVEVVKQSQQAFDMPSVGKIVLGTVKGDLHDIGKNLVAMMLESGGFTVYNLGVDIEPGKFVEAVKKYQPDIVGMSALLTTTMMNMKSTIDALIAAGLRDRVKVIVGGAPLSQDFADEIGADGYAPDAASATELCRQLLE”, the protein production result was “not failed”.
Then “MEPQEEFITTEEVEQEIVPTVEVEQDVPVDIEGENDDDDEMMNDDEEALEVDMSNNSLTYFDKHTDSVFAIGHHPNLPLVCTGGGDNLAHLWTSHSQPPKFAGTLTGYGESVISCSFTSEGGFLVTADMSGKVLVHMGQKGGAQWKLASQMQEVEEIVWLKTHPTIARTFAFGATDGSVWCYQINEQDGSLEQLMSGFVHQQDCSMGEFINTDKGENTLELVTCSLDSTIVAWNCFTGQQLFKITQAEIKGLEAPWISLSLAPETLTKGNSGVVACGSNNGLLAVINCNNGGAILHLSTVIELKPEQDELDASIESISWSSKFSLMAIGLVCGEILLYDTSAWRVRHKFVLEDSVTKLMFDNDDLFASCINGKVYQFNARTGQEKFVCVGHNMGVLDFILLHPVANTGTEQKRKVITAGDEGVSLVFEVPN”, with “failed”.
“MEQWDHFHNQQEDTDSCSESVKFDARSMTALLPPNPKNSPSLQEKLKSFKAALIALYLLVFAVLIPLIGIVAAQLLKWETKNCSVSSTNANDITQSLTGKGNDSEEEMRFQEVFMEHMSNMEKRIQHILDMEANLMDTEHFQNFSMTTDQRFNDILLQLSTLFSSVQGHGNAIDEISKSLISLNTTLLDLQLNIENLNGKIQENTFKQQEEISKLEERVYNVSAEIMAMKEEQVHLEQEIKGEVKVLNNITNDLRLKDWEHSQTLRNITLIQGPPGPPGEKGDRGPTGESGPRGFPGPIGPPGLKGDRGAIGFPGSRGLPGYAGRPGNSGPKGQKGEKGSGNTLTPFTKVRLVGGSGPHEGRVEILHSGQWGTICDDRWEVRVGQVVCRSLGYPGVQAVHKAAHFGQGTGPIWLNEVFCFGRESSIEECKIRQWGTRACSHSEDAGVTCTL”: the protein production result is listed as “failed”.
Then “MATKRANGEGSIGKYKDGWRSRIMIGYNEDGKPLRKEFYGKTQKEVKDKLDAYKKQYYLSSDISDDKITLEHWFYNWLFEYRIKDLKPKSFERYESIYRNYIKDTDLGNVKLKYLRVSHIQKYYNRLLDSNKSIPTIRQINTKLKTCLSEAEKQGLIQRNYCTMVNIPVEKKENKLEILTLEQQKSFIKAIDGHKLEVLFLLALGTGLRLGELLGLKWFDIDFKKSNLTVKRTLQRTYFIDKTGNRELKVLEQGPKTSNSYRTVPIPKDVLNKLKEHKVNQNTDILKAGELYINNNYVFCNELGIPIDDKRPLRNLKSILNSLNIEPIKFHGLRKTYATRLFENDVPPKTVQVLMGHYDISITLNIYTQVMEDKKVEAVEKLDKIFSL”, with “failed”.
